Reference: article PMC8411024 (Biomolecules & Therapeutics, 2021)

Target: T1, Human LRP6 E1E2 (21-630) (human, UniProt O75581 21-630)
T1 sequence (looked up): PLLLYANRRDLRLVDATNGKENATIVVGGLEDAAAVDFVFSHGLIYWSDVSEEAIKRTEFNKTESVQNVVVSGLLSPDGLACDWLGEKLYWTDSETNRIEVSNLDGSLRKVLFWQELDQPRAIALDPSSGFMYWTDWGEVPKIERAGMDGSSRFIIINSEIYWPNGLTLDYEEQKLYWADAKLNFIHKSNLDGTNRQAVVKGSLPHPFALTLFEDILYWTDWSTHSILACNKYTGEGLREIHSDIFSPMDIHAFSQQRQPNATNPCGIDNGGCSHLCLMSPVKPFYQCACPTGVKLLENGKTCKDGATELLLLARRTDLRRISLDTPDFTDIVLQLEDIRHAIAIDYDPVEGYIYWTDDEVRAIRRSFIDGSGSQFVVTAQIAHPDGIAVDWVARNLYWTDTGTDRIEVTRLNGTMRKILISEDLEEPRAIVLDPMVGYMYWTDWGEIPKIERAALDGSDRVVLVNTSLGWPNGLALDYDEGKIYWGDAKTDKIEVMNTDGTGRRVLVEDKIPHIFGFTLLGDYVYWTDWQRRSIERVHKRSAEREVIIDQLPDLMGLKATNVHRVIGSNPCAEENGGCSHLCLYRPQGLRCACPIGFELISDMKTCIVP
Test: HDX-MS

B1: SOSTΔ (24-169) (domain or fragment, human, UniProt Q9BQB4 24-169, looked up)
chain: QGWQAFKNDATEIIPELGEYPEPPPELENNKTMNRAENGGRPPHHPFETKDVSEYSCRELHFTRYVTDGPCRSAKPVTELVCSGQCGPARLLPNAIGRGKWWRPSGPDFRCIPDRYRAQRVQLLCPGGEAPRARKVRLVASCKCKR
binding result: binds
